T1: GST-Sec63C (complete C-terminal domain of human Sec63, residues 210-760, N-terminal GST) (human, UniProt Q9UGP8 210-760)
T1 sequence (looked up): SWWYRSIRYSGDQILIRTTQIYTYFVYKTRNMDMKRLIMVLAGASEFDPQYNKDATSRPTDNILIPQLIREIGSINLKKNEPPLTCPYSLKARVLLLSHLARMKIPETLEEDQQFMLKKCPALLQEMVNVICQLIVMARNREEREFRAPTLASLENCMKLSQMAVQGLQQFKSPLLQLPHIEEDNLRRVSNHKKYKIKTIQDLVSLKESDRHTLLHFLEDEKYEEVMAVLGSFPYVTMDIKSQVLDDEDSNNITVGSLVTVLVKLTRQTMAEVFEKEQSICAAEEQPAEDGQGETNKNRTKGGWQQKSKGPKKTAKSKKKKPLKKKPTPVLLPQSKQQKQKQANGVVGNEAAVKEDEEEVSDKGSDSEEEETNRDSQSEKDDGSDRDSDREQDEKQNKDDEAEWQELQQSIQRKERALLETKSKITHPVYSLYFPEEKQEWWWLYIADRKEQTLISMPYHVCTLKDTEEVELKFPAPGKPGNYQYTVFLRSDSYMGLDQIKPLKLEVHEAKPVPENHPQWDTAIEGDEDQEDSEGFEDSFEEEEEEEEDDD

B1: Sec62N-ΔN10-ΔC40 (human Sec62 residues 11-155, C-terminal hexa-histidine tag) (domain or fragment, UniProt Q99442 11-155, looked up)
chain: IQEVGEPSKEEKAVAKYLRFNCPTKSTNMMGHRVDYFIASKAVDCLLDSKWAKAKKGEEALFTTRESVVDYCNRLLKKQFFHRALKVMKMKYDKDIKKEKDKGKAESGKEEDKKSKKENIKDEKTKKEKEKKKDGEKEESKKEET
B2: human Sec62N (N-terminal domain of human Sec62, residues 1-195, C-terminal hexa-histidine tag) (domain or fragment, UniProt Q99442 1-195, looked up)
chain: MAERRRHKKRIQEVGEPSKEEKAVAKYLRFNCPTKSTNMMGHRVDYFIASKAVDCLLDSKWAKAKKGEEALFTTRESVVDYCNRLLKKQFFHRALKVMKMKYDKDIKKEKDKGKAESGKEEDKKSKKENIKDEKTKKEKEKKKDGEKEESKKEETPGTPKKKETKKKFKLEPHDDQVFLDGNEVYVWIYDPVHFK

What was measured:
[1] = molecular target: B2; assay: pull-down
[2] = molecular target: B1; assay: pull-down
[3] = molecular target: T1, GST-Sec63C (complete C-terminal domain …); assay: pull-down
[4] = molecular target: T1, GST-Sec63C (complete C-terminal domain …); assay: SPR

EGDEDQEDSEGFEDSFEEEEEEEEDDD (domain or fragment, UniProt Q9UGP8 734-760, looked up) [GST-Sec63C26 (C-terminal 26 amino acid residues of human Sec63, residues 734-760, N-terminal GST)]
binding result [1]: binds | binding result [2]: binds

B1
binding result [3]: binds

B2
Kd [4]: 4.78 nM

Reference: publication PMC2828957 (Molecular Biology of the Cell, 2010)
